# Source: the RNAGym collection of RNA variant scans (doi:10.7554/elife.90254)
# B1: OR4K15 (parent)
# chain: GUUAACGGUCAUAGGCCAUGGAAACUAGGAGCACCAUUUCGCUGCCAGUGAAGAAAUGAACAAAGAAAAUCUGGGCCAGGCAGGCAUCAAAAGAAAUAGUCUUGCGCUCAACCAGAAAGUCUGUAAUCAUUUUAAGGGUA
# Variants of: B1
# Experiment: self-cleavage, relative activity (ratio to wild type); higher = more cleavage; in vitro, sequencing; the parent is a self-cleaving ribozyme
row,Variant,self-cleavage
1,GUUAUCGGUCAUAGGCCAUGGAAACUAGGAGCACCAUUUCGCUGCCAGUGAAGUAAUGAACAAAGAAAAUCUGGGCCAGGCAGGCAUCAAAAGAAAUAGUCUUGCGCUCAACCAGAAAGUCUGUAAUCAUUUUAAGGGUA,1.7
2,GUUAUCGGUCAUAGGCCAUGGAAACUAGGAGCACCAUUUCGCUGCCAGUGAAGAAAUGAACAAAGAAAAUCUGGGCCAGGCAGGCAUCAAAAGAAAUAGUCUUGCGCUCAACCAGGAAGUCUGUAAUCAUUUUAAGGGUA,1.13
3,GUUAUCGGUCAUAGGCCAUGGAAACUAGGAGCACCAUUUCGCUGCCAGUGAAGAAAUGAACAAAGAAAAUCUGGGCCAGGCAGGCAUCAAAAGAAAUAGUCUUGCGCUCAACCAGAAAGUCUGUAGUCAUUUUAAGGGUA,1.07
4,GUUAGCGGUCAUAGGCCAUGGAAACUAGGAGCACCAUUUCGCUGCCAGUGAAGAAAUGAACAAAGAAAAUCUGGGCCAGGCAGGCAUCAAAAGAAAUAGUCUUGCGCUCAACCAGAAAGUCUGUAAUCACUUUAAGGGUA,1.01
5,GUUAGCGGUCAUAGGCCAUGGAAACUAGGAGCACCAUUUCGCUGCCAGUGAAGAAAUGAACAAAGAAAAUCUGGGCCAGGCAGGCAUCAAAAGAAAUAGUCCUGCGCUCAACCAGAAAGUCUGUAAUCAUUUUAAGGGUA,1.34
6,GUUAGCGGUCAUAGGCCAUGGAAACUAGGAGCACCAUUUCGCUGCCAGUGAAGAAAUGAACAAAGAAAAUCUGGGCCAGGCAGGCAUCAAAAGAAAUAGUCUUGCGCUCAACCAGAAAGUCCGUAAUCAUUUUAAGGGUA,0.91
7,GUUAGCGGUCAUAGGCCAUGGAAACUAGGAGCACCAUUUCGCUGCCAGUGAAGAAAUGAACAAAGAAAAUCUGGGCCAGGCAGGCAUCAAAAGAAAUAGUCUUGCGCUCAACCAGAAAGUCAGUAAUCAUUUUAAGGGUA,1.34
8,GUUAUCGGUCAUAGGCCAUGGAAACUAGGAGCACCAUUUCGCUGCCAGUGAAGAAAUGAACAAAGAAAAUCUGGGCCAGGCAGGCAUCAAAAGAAAUAGUCUUGCGCUUAACCAGAAAGUCUGUAAUCAUUUUAAGGGUA,0.68
9,GUUAGCGGUCAUAGGCCAUGGAAACUAGGAGCACCAUUUCGCUGCCAGUGAAGAAAAGAACAAAGAAAAUCUGGGCCAGGCAGGCAUCAAAAGAAAUAGUCUUGCGCUCAACCAGAAAGUCUGUAAUCAUUUUAAGGGUA,1.09
10,GUUAGCGGUCAUAGGCCAUGGAAACUAGGAGCACCAUUUCGCUGCCAGUGAAGAAAGGAACAAAGAAAAUCUGGGCCAGGCAGGCAUCAAAAGAAAUAGUCUUGCGCUCAACCAGAAAGUCUGUAAUCAUUUUAAGGGUA,1.17
11,GUUAUCGGUCAUAGGCCAUGGAAACUAGGAGCACCAUUUCGCUGCCAGUGUAGAAAUGAACAAAGAAAAUCUGGGCCAGGCAGGCAUCAAAAGAAAUAGUCUUGCGCUCAACCAGAAAGUCUGUAAUCAUUUUAAGGGUA,0.66
12,GUUAGCGGUCAUAGGCCAUGGAAACUAGGAGCACCAUUUCGCUGCCAGUGAAGAAAUGAACAAAGAAAAUCUGGGCCAGGCAGGCAUCAAAAGAAAUAGCCUUGCGCUCAACCAGAAAGUCUGUAAUCAUUUUAAGGGUA,1.11
13,GUUAUUGGUCAUAGGCCAUGGAAACUAGGAGCACCAUUUCGCUGCCAGUGAAGAAAUGAACAAAGAAAAUCUGGGCCAGGCAGGCAUCAAAAGAAAUAGUCUUGCGCUCAACCAGAAAGUCUGUAAUCAUUUUAAGGGUA,1.27
14,GUUAUCGGUCAUAGGCCAUGGAAACUAGGAGCACCAUUUCGCUGCCAGUGAAGAAAUGAACCAAGAAAAUCUGGGCCAGGCAGGCAUCAAAAGAAAUAGUCUUGCGCUCAACCAGAAAGUCUGUAAUCAUUUUAAGGGUA,1.64
15,GUUAGCGGUCAUAGGCCAUGGAAACUAGGAGCACCAUUUCGCUGCCAGUGAAGAAAUGAACAAAGAAAAACUGGGCCAGGCAGGCAUCAAAAGAAAUAGUCUUGCGCUCAACCAGAAAGUCUGUAAUCAUUUUAAGGGUA,0.75
16,GUUAGCGGUCAUAGGCCAUGGAAACUAGGAGCACCAUUUCGCUGCCAGUGAAGAAAUGAACAAAGAAAAUCUGGGCCAGGCAGGCAACAAAAGAAAUAGUCUUGCGCUCAACCAGAAAGUCUGUAAUCAUUUUAAGGGUA,0.62
17,GUUAUCGGUCAUAGGCCAUGGAAACUAGGAGCACCAUUUCGCUGCCAGUGAAGAAUUGAACAAAGAAAAUCUGGGCCAGGCAGGCAUCAAAAGAAAUAGUCUUGCGCUCAACCAGAAAGUCUGUAAUCAUUUUAAGGGUA,1.15
18,GUUAUCGGUCAUAGGCCAUGGAAACUAGGAGCACCAUUUCGCUGCCAGUGAAGAAGUGAACAAAGAAAAUCUGGGCCAGGCAGGCAUCAAAAGAAAUAGUCUUGCGCUCAACCAGAAAGUCUGUAAUCAUUUUAAGGGUA,1.76
19,GUUAGCGGUCAUAGGCCAUGGAAACUAGGAGCACCAUUUCGCUGCCAGAGAAGAAAUGAACAAAGAAAAUCUGGGCCAGGCAGGCAUCAAAAGAAAUAGUCUUGCGCUCAACCAGAAAGUCUGUAAUCAUUUUAAGGGUA,0.9
20,GUUAGCGGUCAUAGGCCAUGGAAACUAGGAGCACCAUUUCGCUGCCAGUGAAGAAAUGAACAAAGAAAAUCUGGGCCAGGCAGGCAUCAAAAGAAAUAGUCUUGCGCUCAACCAGAAAGACUGUAAUCAUUUUAAGGGUA,1.77
21,GUUAGCGGUCAUAGGCCAUGGAAACUAGGAGCACCAUUUCGCUGCCAGUGAAGAAAUGAACAAAGAAAAUCUGGGCCAGGCAGGCAUCAAAAGAAAUAGUCUUGCGCUCAACCAGAAAGCCUGUAAUCAUUUUAAGGGUA,0.86

row,Variant,self-cleavage
1,GUUAGCGGUCAUAGGCCAUGGAAACUAGGAGCACCAUUUCGCUGCCAGUGAAGAAAUGAACAAAGAAAAUCUGGGCCAGGCAGGCAUCAAAAGAAAUAGUCUUGCGCACAACCAGAAAGUCUGUAAUCAUUUUAAGGGUA,0.05
2,GUUAGCGGUCAUAGGCCAUGGAAACUAGGAGCACCAUUUCGCUGCCAGUGAAGAAAUGAACAAAGAAAAUCUGGGCCAGGCAGGCAUCAAAAGAAAUAGUCUUGCGCCCAACCAGAAAGUCUGUAAUCAUUUUAAGGGUA,0.06
3,GUUAUCGGUCAUAGGCCAUGGAAACUAGGAGCACCAUUUCGCUGCCGGUGAAGAAAUGAACAAAGAAAAUCUGGGCCAGGCAGGCAUCAAAAGAAAUAGUCUUGCGCUCAACCAGAAAGUCUGUAAUCAUUUUAAGGGUA,1
4,GUUAGCGGUCAUAGGCCAUGGAAACUAGGAGCACCAUUUCGCUGCCAGUGAAGAAAUGAACAAAGAAAAUCUGGGCCAGGCAGGCAUCAAAAGAAAAAGUCUUGCGCUCAACCAGAAAGUCUGUAAUCAUUUUAAGGGUA,1.57
5,GUUAUCGGUCAUAGGCCAUGGAAACUAGGAGCACCAUUUCGCUGCCAGUGAAGAAAUGAACAAAGAAAAUCUGGGCCAGGCAGGCAUCAAAAGAAAUAGUCUUGCGCUCAACCAGAAAGUCUGUAAUCGUUUUAAGGGUA,0.79
6,GUUAGCGGUCAUAGGCCAUGGAAACUAGGAGCACCAUUCCGCUGCCAGUGAAGAAAUGAACAAAGAAAAUCUGGGCCAGGCAGGCAUCAAAAGAAAUAGUCUUGCGCUCAACCAGAAAGUCUGUAAUCAUUUUAAGGGUA,1.32
7,GUUAGCGGUCAUAGGCCAUGGAAACUAGGAGCACCAUUACGCUGCCAGUGAAGAAAUGAACAAAGAAAAUCUGGGCCAGGCAGGCAUCAAAAGAAAUAGUCUUGCGCUCAACCAGAAAGUCUGUAAUCAUUUUAAGGGUA,1.16
8,GUUAUCGGUCAUAGGCCAUGGAAACUAGGAGCACCAUUUCGCUGCCAGUGAAGAAAUGAACAAAGAAAAUCUGGGCCAGGCAGGCAUCAAAAGAAAUAGUCUUGCGCUCAACCGGAAAGUCUGUAAUCAUUUUAAGGGUA,0.49
9,GUUAUCGGUCAUAGGCCAUGGAAACUAGGAGCACCAUUUCGCUGCCAGUGAAGAAAUGAACAAAGAAAAUCUGGGCCAGGCAGGCAUCAAAAGAAAUAGUCUUGCGCUCAACCAGAGAGUCUGUAAUCAUUUUAAGGGUA,1.74
10,GUUAUCGGUCAUAGGCCAUGGAAACUAGGAGCACCAUUUCGCUGCCAGUGAAGAAAUGAACAAAGAAAAUCUGGGCCAGGCAGGCAUCAAAAGAAAUAGUCUUGCGCUCAGCCAGAAAGUCUGUAAUCAUUUUAAGGGUA,0.06
11,GUUAUCGGUCAUAGGCCAUGGAAACUAGGAGCACCUUUUCGCUGCCAGUGAAGAAAUGAACAAAGAAAAUCUGGGCCAGGCAGGCAUCAAAAGAAAUAGUCUUGCGCUCAACCAGAAAGUCUGUAAUCAUUUUAAGGGUA,2.27
12,GUUAUCGGUCAUAGGCCAUGGAAACUAGGAGCACCAUUUCGCUGCCAGUGAAGAAAUGAACAAAGAAAAUCUGGGCCAGGCAGGCAUCAAAAGGAAUAGUCUUGCGCUCAACCAGAAAGUCUGUAAUCAUUUUAAGGGUA,1.51
13,GUUAGCGGUCAUAGGCCAUGGAAACUAGGAGCACCAUCUCGCUGCCAGUGAAGAAAUGAACAAAGAAAAUCUGGGCCAGGCAGGCAUCAAAAGAAAUAGUCUUGCGCUCAACCAGAAAGUCUGUAAUCAUUUUAAGGGUA,1.14
14,GUUAGCGGUCAUAGGCCAUGGAAACUAGGAGCACCAUAUCGCUGCCAGUGAAGAAAUGAACAAAGAAAAUCUGGGCCAGGCAGGCAUCAAAAGAAAUAGUCUUGCGCUCAACCAGAAAGUCUGUAAUCAUUUUAAGGGUA,0.58
15,GUUAUCGGUCAUAGGCCAUGGAAACUAGGAGCACCAUUUCGAUGCCAGUGAAGAAAUGAACAAAGAAAAUCUGGGCCAGGCAGGCAUCAAAAGAAAUAGUCUUGCGCUCAACCAGAAAGUCUGUAAUCAUUUUAAGGGUA,1.82
16,GUUAUCGGUCAUAGGCCAUGGGAACUAGGAGCACCAUUUCGCUGCCAGUGAAGAAAUGAACAAAGAAAAUCUGGGCCAGGCAGGCAUCAAAAGAAAUAGUCUUGCGCUCAACCAGAAAGUCUGUAAUCAUUUUAAGGGUA,0.69
17,GUUAUCGGUCAUAGGCCAUGGAAACUAGGAGCACCAUUUCGCUGCCAGUGAAGAAAUGAACAAAGAAAAUCUGGGCCAGGCAGGCAUCAGAAGAAAUAGUCUUGCGCUCAACCAGAAAGUCUGUAAUCAUUUUAAGGGUA,0.78
18,GUUAUCGGUCAUAGGCCAUGGAAACUAGGAGCACCAUUUCGCUGCCAGUGAAGAAAUGAACAAAGAAAAUCUGGGCCAGGCGGGCAUCAAAAGAAAUAGUCUUGCGCUCAACCAGAAAGUCUGUAAUCAUUUUAAGGGUA,0.6
19,GUUAUCGGUCAUAGGCCAUGGAAACUAGGAGCACCAUUUCGCUGCCAGUGAAGAAAUGAACAGAGAAAAUCUGGGCCAGGCAGGCAUCAAAAGAAAUAGUCUUGCGCUCAACCAGAAAGUCUGUAAUCAUUUUAAGGGUA,1.2
20,GUUAUCGGUCAUAGGCCAUGGAAACUAGGAGCACCAUUUCGCUGCCAGUGAAGAAAUGAACAAAGAAAAUCUGGGCCAGGCAGGCAUCAAAAGAGAUAGUCUUGCGCUCAACCAGAAAGUCUGUAAUCAUUUUAAGGGUA,1.59
